# From the DeepSol protein solubility set
# Test: soluble on expression in E. coli; label from the status in PepcDB or PDB records
row,Sequence,soluble on expression in E. coli
1,MSAFASSDRAEKSGIALEAQQKIYEKYDKNLAGEILQWVQNVTGQSFDTQGDADNLVKVFQDGSLLCTLANSLKPGSVKKVNTSAMAFKKMENISFFLKFAEEYVQKSELFQTVDLYEGQDPNAVLICLASLARKSEKNFGRSGLGPKEAQGDRREWTDEQLKAGHNVIGLQMGSNKGATASGLNMGNTRHM,not soluble
2,MSAFTPASEVLLRHSDDFEQSRILFAGDLQDDLPARLDTAASRAHTQQFQHWQVLSRQMGDNARFSLVATADDVADCDTLIYYWPKNKPEAQFQLMNLLSLLPVGTDIFVVGENRSGVRSAEQMLADYAPLNKVDSARRCGLYFGRLEKQPVFDADKFWGEYSVDGLTVKTLPGVFSRDGLDVGSQLLLSTLTPHTKGKVLDVGCGAGVLSVAFARHSPKIRLTLCDVSAPAVEASRATLAANGVEGEVFASNVFSEVKGRFDMIISNPPFHDGMQTSLDAAQTLIRGAVRHLNSGGELRIVANAFLPYPDVLDETFGFHEVIAQTGRFKVYRAIMTRQAKKG,not soluble
3,MSAKMDEQALLALLRELAIDSQRVEHPAIASIEEYYAQGIELPDQGIKNLFLRNRKGTRHYLVLLDERKEADLPGIAEQIGESRLSFASVERLREYLGVELGCVTPFALVNDPQHRVEVLLDDAIRQDQLLGFHPLVNTATECIRYADLLAFLAHTGHEPRLIRA,not soluble
4,MSALDPQASARVARTPDAEPEAVDASAAGESAGLIARLGRLFERDRLPPPADLAQLFEARLTDVRANKLAQAWRLAYEQADGKRRRAMLGGLAQVGAGMQGDGAQGTRLFKRFNALPDGLRFLVALRADMLRWRKQVAGLQALDKELEALLSAWFDVGLLELRPLTWDSPASLLEKLILYEAVHEIRSWDDLRHRVAGDRRCYAYFHPQMPDVPLIFVEVAFSAQMADNVQALLDTSAPPQDLDKARWAIFYSISNTQPGLRGISFGNFLLKRVIDRLLQELPKLKFFATLSPIPGFADWLSRLDAQEVEQAVRDKARTRSGAPDGARWVARLARAATGKPSEVVQRAGLRLAARYLQAMRAGQPLDPVARFHLGNGARIERLNWAADTSAKGLAQSCGMMVNYLYELGDLDGNLARLNEGKPQVSRGIARLGLEHHHHHH,not soluble
5,MSALYRRFRPLTFQEVVGQEHVKEPLLKAIREGRLAQAYLFSGPRGVGKTTTARLLAMAVGCQGEDPPCGVCPHCQAVQRGAHPDVVEIDAASNNSVEDVRELRERIHLAPLSAPRKVFILDEAHMLSKSAFNALLKTLEEPPPHVLFVFATTEPERMPPTILSRTQHFRFRRLTEEEIAFKLRRILEAVGREAEEEALLLLARLADGALRDAESLLERFLLLEGPLTRKEVERALGLPPREALAEIAASLARGKTAEALGLARRLYGEGYAPRSLVSGLLEVFREGLYAAFGLAGTPLPAPPQALIAAMTALDEAMERLARRSDALSLEVALLEAGRALAAEALPQPTGAPSPEVGPKPESPPAPEPPRPEEAPDLRERWRAFLEALRPTLRAFVREARPEVREGQLCLAFPEDKAFHYRKASEQKARLLPLAQAHFGVEEVVLVLEGEKKSLSPRPRPAPPPEAPAPPGPPEEEVEAEEAAEEAPEEALRRVVRLLGGRVLWVRRPRTREAPEEEPLSQDEIGGTGI,soluble
6,MSAQAAKVSKKELNSNHDGADETSEKEQQEAIEHIDEVQNEIDRLNEQASEEILKVEQKYNKLRQPFFQKRSELIAKIPNFWVTTFVNHPQVSALLGEEDEEAMHYLTRVEVTEFEDIKSGYRIDFYFDENPYFENKVLSKEFHMNESGDPSSKSTEIKWKSGKDMTKRSSQTQNKASRKRQHEEPESFFTWFTDHSDAGADELGEVIKDDIWPNPLQYYLVPDM,soluble
7,MSATETITTNARVLGADPLVKDGFGEEDMLTLVLPYIKTAREGVLRLGELLETYGTYESNGIAFADTEEIWWLKTIGGHNWIARRVPDDAYVTNPNQLGIDHYEFENPDDYLASPDIRDFINKHHLDLTYSNEHFNPRYAFGSQRDKDHHYNTPRARAM,soluble
8,MSAVSNGNPSIVSPRGEHKGTLIFLHGLGDQGHGWADAFKTEAKHDNIKFICPHSSERPVTLNMGMRMPAWFDLFGLDPNAQEDEQGINRATQYVHQLIDAEVAAGIPASRIAVGGFSMGGALAIYAGLTYPQKLGGIVGLSSFFLQRTKFPGSFTANNATPIFLGHGTDDFLVPLQFGQMSEQYIKKFNPKVELHTYRGMQHSSCGEEMRDVKTFLSAHIAH,not soluble
9,MSCCFSKKLFGRRSKREDRYKVSEDAVPKPEEGGEPPKYSWDRREKVNAEDFTIANIHNTTLKKESKDGGPLQMENCTDSTILYLYQTSQVIIDDCRHCTIVLGPAAGSVFVRDCANCTIFTSCQQLRTRDCTSIRISILCPTEPIVENSSDIHFFHLAMRYPELKDQMHAVGLRPFTNRIASVHDFTPAGVNGKGNFRVTPEVVQISDGQEEILRAKGVILKPSPADFIPRFTDTTDPDPTFLYVLGKSEPVDELGDRAIELLHAIYKSGMQVMGTCDLETSTVDSKLVPFAGQAERMILFQLKGNLANLECDVEFDVMSENDLVPLRNLLIHLEGKKNG,not soluble
10,MSCNSFFVFCANSKKEKKDKILEITPQGTTPLPCSRQSRMRDENGSTRTRGGSRGIKSSKEPDSTDDAFKEMAKRLAKKDKPEKTLDFI,soluble
11,MSCVHYKFSSKLNYDTVTFDGLHISLCDLKKQIMGREKLKAADCDLQITNAQTKEEYTDDNALIPKNSSVIVRRIPIGGVKSTSKTYVISRTEPAMATTKAIDDSSASISLAQLTKTANLAEANASEEDKIKAMMSQSGHEYDPINYMKKPLGPPPPSYTCFRCGKPGHYIKNCPTNGDKNFESGPRIKKSTGIPRSFMMEVKDPNMKGAMLTNTGKYAIPTIDAGRLLFHKLGTMGHKQIDTYFWNRGDVYGATATQITHLREAYAIGKKEKPPFLPEEPSSSSEEDDPIPDELLCLICKDIMTDAVVIPCCGNSYCDECIRTALLESDEHTCPTCHQNDVSPDALIANKFLRQAVNNFKNETGYTKRLRKQLPPPPPPIPPPRPLIQRNLQPLMRSPISRQQDPLMIPVTSSSTHPAPSISSLTSNQSSLAPPVSGNPSSAPAPVPDITATVSISVHSEKSDGPFRDSDNKILPAAALASEHSKGTSSIAITALMEEKGYQVPVLGTPSLLGQSLLHGQLIPTTGPVRINTARPGGGRPGWEHSNKLGYLVSPPQQIRRGERSCYRSINRGRHHSERSQRTQGPSLPATPVFVPVPPPPLYPPPPHTLPLPPGVPPPQFSPQFPPGQPPPAGYSVPPPGFPPAPANLSTPWVSSGVQTAHSNTIPTTQAPPLSREEFYREQRRLKEEEKKKSKLDEFTNDFAKELMEYKKIQKERRRSFSRSKSPYSGSSYSRSSYTYSKSRSGSTRSRSYSRSFSRSHSRSYSRSPPYPRRGRGKSRNYRSRSRSHGYHRSRSRSPPYRRYHSRSRSPQAFRGQSPNKRNVPQGETEREYFNRYREVPPPYDMKAYYGRSVDFRDPFEKERYREWERKYREWYEKYYKGYAAGAQPRPSANRENFSPERFLPLNIRNSPFTRGRREDYVGGQSHRSRNIGSNYPEKLSARDGHNQKDNTKSKEKESENAPGDGKGNKHKKHRKRRKGEESEGFLNPELLETSRKSREPTGVEENKTDSLFVLPSRDDATPVRDEPMDAESITFKSVSEKDKRERDKPKAKGDKTKRKNDGSAVSKKENIVKPAKGPQEKVDGERERSPRSEPPIKKAKEETPKTDNTKSSSSSQKDEKITGTPRKAHSKSAKEHQETKPVKEEKVKKDYSKDVKSEKLTTKEEKAKKPNEKNKPLDNKGEKKKKK,soluble
12,MSCVQQQRRSTGLRIAERLNKYITLPNRHSFTVDSKDVFQRGQVLSYIRSKAPFLLEHISEAKERLITVTSRGLMIIYENDDHGLVIDLRSARNVLCTADRSKKQRHFRCHIKIRMQRGNVHLFVGHNDVHKWTCAIMRAAGKCLPSTEPRDDGSLNVAMMTAVEDSGIFEEMSSTSSASYDYDEDDEVDEVKPTAIEQIPLPHVSVRSLRQKLEKELVLKPKEQVLAEQQHKANCDEPSFVSEIFCTPRAVFSDETVVLLEPTNARERREYEAQADRENQWWTRSLRC,not soluble
13,MSDDEIGDGARAFNQLIQALSLSIETETAVRTFTEMLVSELDVHQLTEQALALLLQHTGADGGAILIEVDGEIRVAASQGIGSAHTLANNDRVRSALRTERRHRVQLPEDLVVDGMLAQFRPKEVIIDPVRHKEVVLGAVVLASGQGFSAEDRNRLDVFERGLALALHNALLYDRLQTLAALDPLTGALEHHHHHH,soluble
14,MSDELSVKRHKSDPDESIEEIMPEIRPPLTRTHKIVRDESGKHNLLLILTGSIAVMKAPELISELYEKIGRDRILIKVVTTENAMKLCHIQKLEFDEIVYEDRDEWSMWRERGDKVLHIELRKWADSALIAPLDANTMAKIANGLCDNLVTSIIRAWDLSKPCYFAPAMNTHMWENPLTMQHRTVLKSQLKFKEICPIQKELICGDVGTGAMASIGTIVSLVAALVRDQQAVRIQCG,not soluble
15,MSDHPGPGAVTPELFGVGGDWLAVTAGESGASVFRAADATRYAKCVPAADAAGLEAERDRIAWLSGQGVPGPRVLDWYAGDAGACLVTRAVPGVPADRVGADDLRTAWGAVADAVRRLHEVPVASCPFRRGLDSVVDAARDVVARGAVHPEFLPVEQRLVPPAELLARLTGELARRRDQEAADTVVCHGDLCLPNIVLHPETLEVSGFIDLGRLGAADRHADLALLLANARETWVDEERARFADAAFAERYGIAPDPERLRFYLHLDPLTWG,not soluble
16,MSDILLGKLATEFKTVKAMVEVYCHDHHGTKDALCSECRELLEYAEVRLDRCPYGEEKPTCNKCPIHCYKPEPKEQMRLVMRYSGPRMLLKHPILAVRHLLHEKREVPEKPAANASNRHKRINAERDT,not soluble
17,MSDITLREAQKSVDQWIKTLGIRYFNELTNMAILTEEVGEVARIIARRYGEQSEKESDKSKDLADEMADVLWVLLCLANQTGVDLTTAFHKNIEKKTVRDKERHQQNTKLHNNGSK,soluble
18,MSDLSAQLSAFKNKIKSGPSVIVPRKATFTQSPSSPLSSSTTTTTSKNDANVKKRSTTDSVTRVLKKQKANMGEMTGSHLSTQLHLAVEYIKEHDQPISVEKLQNYLSFDISHTLLPLLNEIDRVKYDESKGTLEYVSLHNIRSSDDLLEFLRRQTTFKGTSVKELKDGWAGCVAAIDELESQGKILVLRNKKENAPRLVWANNGGELGYIDTEFKDMWDQVKLPEPDVLYQKLLDQGLKPTGADPNLIKKQPQQKEKKQKKARRGKITNTHMKGILKDYSQLV,soluble
19,MSDMTDMLEDEMIDPVTGEIIDQKDLAERLLAQAKEQGVSLVGPGGLLNQLTKNVLETALNAELTEYLGHEHGETPLGSNMRNGPRTKTVLTVESGRFRSRSRGTVTGRSSR,not soluble
20,MSDNNDRMYELEYPSPEVSGQTAGGPTLIVALQGYADAGHAVESSSSHLMDALDHRLIASFNNDELIDYRSRRPVVVIEHNEVTSMDELNLGLHVVRDNDNKPFLMLSGPEPDLRWGDFSNAVVDLVEKFGVENTICLYAAPMTVPHTRPTVVTAHGNSTDRLKDQVSLDTRMTVPGSASLMLEKLLKDKGKNVSGYTVHVPHYVSASPYPAATLKLLQSIADSADLNLPLLALERDAEKVHRQLMEQTEESSEIQRVVGALEQQYDSE,not soluble
21,MSDNNDRMYELEYPSPEVSGQTAGGPTLIVALQGYADAGHAVESSSSHLMDALDHRLIASFNNDELIDYRSRRPVVVIEHNEVTSMDELNLGLHVVRDNDNKPFLMLSGPEPDLRWGDFSNAVVDLVEKFGVENTICLYAAPMTVPHTRPTVVTAHGNSTDRLKDQVSLDTRMTVPGSASLMLEKLLKDKGKNVSGYTVHVPHYVSASPYPAATLKLLQSIADSADLNLPLLALERDAEKVHRQLMEQTEESSEIQRVVGALEQQYDSELERYRNRHPQAVMPGESELPSGDEIGAEFEKFLADLDDQGGSDHKETPEA,soluble
